To fix the notation:
T1: mouse IL-22 (Mus musculus, UniProt Q9JJY9)
T1 sequence (Q9JJY9 34-179): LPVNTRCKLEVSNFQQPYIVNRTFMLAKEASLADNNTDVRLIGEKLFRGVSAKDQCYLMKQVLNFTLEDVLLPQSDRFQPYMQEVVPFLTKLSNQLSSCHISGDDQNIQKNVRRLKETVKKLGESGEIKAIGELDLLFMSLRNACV

T2: human IL-22 (Homo sapiens, UniProt Q9GZX6)
T2 sequence (Q9GZX6 34-179): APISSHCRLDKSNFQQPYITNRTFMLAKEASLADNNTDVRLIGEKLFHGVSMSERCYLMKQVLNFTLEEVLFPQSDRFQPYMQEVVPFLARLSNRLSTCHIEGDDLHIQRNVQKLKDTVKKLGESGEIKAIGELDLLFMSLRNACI

B1: CPS17: mutant anti-IL-22 antibody binding human and mouse IL-22; light chain LC-04, heavy chain HC-49 (antibody, V domains shown)
VH: QVQLVQSGAEVKKPGASVKVSCKASGYIFRSYWIHWIRQPPGKGLEWIGRIYPGTGNTYYNRKFKGRVTISADKSISTAYLQWSSLKASDTAMYYCARSYMYSVAYWGQGTLVTVSS
VL: AIQLTQSPSSLSASVGDRVTITCSASSSVSYMHWYLQKPGQSPQLLIYETRKLASGVPSRFSGSGSGTDFTFTISSLEAEDAATYYCQQWSSNPYITFGQGTKVEIKR
B2: CPS14 (antibody, V domains shown)
VH: B1 VH with R30T, N57R, M101D
VL: B1 VL
B3: CPS04: mutant anti-IL-22 antibody binding human and mouse IL-22; light chain LC-07, heavy chain HC-09 (antibody, V domains shown)
VH: B1 VH with M101D, Y102S
VL: B1 VL with E49K, R51S, A54L
B4: LC-E049K: one of the mutant antibodies in the CPE library, used as a control (antibody, V domains shown)
VH: B1 VH with R30T, R62E, M101D, Y102S, V104C
VL: B1 VL with E49K, R51S

Numbering of substitutions follows the chain as printed. Names and notes keep the numbering of the source.

The first assay addresses T1, mouse IL-22. Briefly: SPR capture assay, affinity to mouse IL-22. The assay is classed as binding. Particulars: mouse IL-22, SPR. How it is done: (§1) The affinity of the 10 antibodies of Table 1 was measured by Surface Plasma Resonance (SPR) using a capture assay in PBS buffer to generate binding curves at four different concentrations of each antibody (0.05, 0.1, 0.5, and 1.0 μg/ml). The Ka, Kd and KD values for the mutant antibodies were calculated from the curves for each of the antibodies.
(§2) The affinity of the 10 antibodies of Table 1 was measured by Surface Plasma Resonance (SPR) using a capture assay on a SPR-2 instrument (SierraSensiors, Hamburg, Germany). The antigens hIL-22 and mIL-22 were immobilized on chips. The running buffer for the assay contained 10 mM HEPES with a pH of 7.4, 500 mM NaCl, and 0.05% TWEEN® 20. […] The off-rate was measured for 6 minutes. Binding constants were calculated using the curve fitting software Analyzer2 (Sierra Sensors). Sensorgrams were analyzed with the instrument specific software and with BIAevaluation 4.1 software. The binding data were analyzed using the Langmuir 1:1 model (human IL-22) or a model for a heterogeneous ligand ([…]).
(§3) The antibodies were tested at four different concentrations of each antibody: 0.33 nM, 0.67 nM, 3.3 nM, 6.7 nM for hIL-22; 1, 2, […] for mIL-22. Antibody CPE-LC-E049K was used as a control.
For B1, the ka is 252000 M·s and the kd came out at 0.00158 s⁻¹.

The molecule B2 gave a ka of 256000 M·s and a kd of 0.00123 s⁻¹.

Molecule B3 returned a ka of 279000 M·s and a kd of 0.00118 s⁻¹.

In turn, B4 had a ka of 34100 M·s and a kd of 0.00137 s⁻¹.

Another assay deals with T2, human IL-22. Briefly: SPR capture assay, affinity to human IL-22. The class given is binding. Particulars: human IL-22, SPR. On the procedure: as §1, §2, §3
The molecule B1 came in with a ka of 1.33e+06 M·s and a kd of 6.94e-05 s⁻¹.

Molecule B2 registered a ka of 1.13e+06 M·s and a kd of 3.55e-05 s⁻¹.

The molecule B3 registered a ka of 1.28e+06 M·s and a kd of 3.74e-05 s⁻¹.

For the molecule B4, the ka was 381000 M·s and the kd came to 5.93e-05 s⁻¹.

The values are drawn from patent US11834472B2, “Anti-IL-22 antibodies, antibody fragments, their immunoconjugates and uses thereof” (BioAtla, Inc., priority 2018, dated 2023).
